Test results published in the Human Domainome abundance scans (Beltran et al. 2025).
± gives the uncertainty stated by the source.

B1: Transcription factor SOX-4, residues 60 to 127; numbered along this chain, Q06945 (parent)
chain: KRPMNAFMVWSQIERRKIMEQSPDMHNAEISKRLGKRWKLLKDSDKIPFIREAERLRLKHMADYPDYK

Variants of: B1
Assay: abundance fitness (aPCA) (normalised: wild type 0, dead -1); higher = more abundant; growth selection in yeast, the domain comes from the species named
Conditions: Homo sapiens

| Variant | abundance fitness |
| --- | --- |
| P65I | -0.333 ± 0.15 |
| P65G | -0.059 ± 0.09 |
| P65H | -0.09 ± 0.11 |
| P65Q | 0.042 ± 0.063 |
| P65R | -0.174 ± 0.056 |
| P65M | -0.193 ± 0.089 |
| P65Y | -0.124 ± 0.24 |
| P65E | -0.025 ± 0.076 |
| P65A | -0.267 ± 0.083 |
| P65V | -0.097 ± 0.068 |
| P65K | 0.018 ± 0.07 |
| P65S | 0.102 ± 0.062 |
| P65D | 0.103 ± 0.18 |
| P65T | -0.064 ± 0.075 |
| P65W | -0.466 ± 0.11 |
| Y64R | 0.035 ± 0.068 |
| Y64N | 0.124 ± 0.12 |
| Y64S | 0.063 ± 0.056 |
| Y64W | -0.25 ± 0.077 |
| Y64C | -0.056 ± 0.2 |
| Y64K | 0.128 ± 0.095 |
| Y64P | -0.009 ± 0.061 |
| Y64G | -0.008 ± 0.073 |
| Y64E | 0.006 ± 0.083 |

| Variant | abundance fitness |
| --- | --- |
| Y64M | -0.061 ± 0.078 |
| Y64F | -0.156 ± 0.094 |
| Y64I | -0.109 ± 0.18 |
| Y64Q | -0.112 ± 0.13 |
| Y64T | 0.059 ± 0.065 |
| Y64V | 0.02 ± 0.063 |
| Y64A | -0.094 ± 0.093 |
| Y64L | 0.009 ± 0.046 |
| M61Y | -0.319 ± 0.25 |
| M61Q | 0.092 ± 0.079 |
| M61T | -0.025 ± 0.093 |
| M61R | -0.134 ± 0.057 |
| M61W | -0.224 ± 0.083 |
| M61N | -0.104 ± 0.13 |
| M61C | -0.071 ± 0.083 |
| M61V | -0.073 ± 0.072 |
| M61P | -0.202 ± 0.087 |
| M61H | 0.098 ± 0.061 |
| M61I | -0.238 ± 0.072 |
| M61S | 0.001 ± 0.071 |
| M61G | 0.022 ± 0.069 |
| M61A | -0.061 ± 0.067 |
| M61K | 0.003 ± 0.089 |
| Y67G | 0.119 ± 0.081 |

| Variant | abundance fitness |
| --- | --- |
| Y67A | 0.028 ± 0.093 |
| Y67I | 0.11 ± 0.15 |
| Y67L | -0.022 ± 0.046 |
| Y67F | 0.259 ± 0.25 |
| Y67K | 0.116 ± 0.11 |
| Y67E | 0.179 ± 0.083 |
| Y67H | -0.301 ± 0.38 |
| Y67C | -0.04 ± 0.15 |
| D66W | -0.325 ± 0.13 |
| D66C | -0.422 ± 0.1 |
| D66G | -0.08 ± 0.07 |
| D66R | 0.015 ± 0.078 |
| D66A | -0.186 ± 0.066 |
| D66V | -0.157 ± 0.049 |
| D66L | -0.152 ± 0.06 |
| D66Q | -0.254 ± 0.083 |
| D66E | 0.102 ± 0.085 |
| D66P | -0.067 ± 0.079 |
| D66T | -0.216 ± 0.069 |
| D66H | -0.141 ± 0.13 |
| D66K | -0.11 ± 0.082 |
| D66Y | -0.537 ± 0.26 |
| D66I | -0.13 ± 0.19 |
| H60C | -0.205 ± 0.13 |

| Variant | abundance fitness |
| --- | --- |
| H60F | -0.193 ± 0.21 |
| H60T | -0.05 ± 0.069 |
| H60D | 0.005 ± 0.075 |
| H60V | -0.173 ± 0.053 |
| H60Q | -0.066 ± 0.072 |
| H60L | -0.186 ± 0.052 |
| H60K | 0.023 ± 0.1 |
| H60N | -0.076 ± 0.24 |
| H60M | -0.092 ± 0.073 |
| H60I | -0.408 ± 0.2 |
| H60E | 0.053 ± 0.072 |
| H60S | 0.041 ± 0.06 |
| H60G | 0.04 ± 0.05 |
| H60R | -0.19 ± 0.047 |
| H60A | -0.055 ± 0.045 |
| H60W | -0.161 ± 0.074 |
| H60P | -0.045 ± 0.079 |
| D63T | -0.104 ± 0.041 |
| D63S | -0.153 ± 0.036 |
| D63V | -0.224 ± 0.038 |
| D63Y | -0.233 ± 0.057 |
| D63E | 0.044 ± 0.042 |
| D63M | 0.055 ± 0.052 |
| D63F | -0.283 ± 0.05 |

| Variant | abundance fitness |
| --- | --- |
| D63K | -0.128 ± 0.06 |
| D63C | -0.397 ± 0.063 |
| D63L | -0.208 ± 0.039 |
| D63W | -0.179 ± 0.061 |
| D63H | -0.168 ± 0.057 |
| D63A | -0.074 ± 0.051 |
| D63P | -0.117 ± 0.074 |
| D63G | -0.142 ± 0.044 |
| D63I | -0.181 ± 0.045 |
| A62F | -0.22 ± 0.059 |
| A62C | -0.15 ± 0.049 |
| A62R | -0.033 ± 0.041 |
| A62G | -0.017 ± 0.038 |
| A62K | 0.008 ± 0.063 |
| A62P | -0.157 ± 0.067 |
| A62W | -0.249 ± 0.054 |
| A62I | -0.163 ± 0.064 |
| A62V | -0.123 ± 0.037 |
| A62H | -0.175 ± 0.067 |
| A62S | -0.021 ± 0.037 |
| A62D | 0.015 ± 0.046 |
| A62Y | -0.104 ± 0.052 |
| A62E | -0.078 ± 0.068 |
| A62M | -0.304 ± 0.075 |

| Variant | abundance fitness |
| --- | --- |
| A62L | -0.175 ± 0.042 |
| K59T | -0.162 ± 0.058 |
| K59E | -0.017 ± 0.046 |
| K59V | -0.086 ± 0.038 |
| K59Y | -0.277 ± 0.053 |
| K59N | -0.118 ± 0.061 |
| K59A | -0.04 ± 0.064 |
| K59P | -0.178 ± 0.089 |
| K59L | 0.02 ± 0.044 |
| K59F | -0.321 ± 0.054 |
| K59D | -0.13 ± 0.054 |
| K59W | -0.369 ± 0.056 |
| K59S | -0.024 ± 0.039 |
| K59H | -0.108 ± 0.073 |
| K59M | -0.048 ± 0.055 |
| K59R | -0.126 ± 0.035 |
| K59G | -0.045 ± 0.038 |
| R57S | -0.309 ± 0.08 |
| R57W | -0.32 ± 0.11 |
| R57M | -0.135 ± 0.086 |
| R57V | -0.413 ± 0.072 |
| R57Q | -0.206 ± 0.1 |
| R57F | 0.056 ± 0.22 |
| R57T | -0.19 ± 0.17 |

| Variant | abundance fitness |
| --- | --- |
| R57L | -0.328 ± 0.063 |
| R57G | -0.247 ± 0.064 |
| R57H | -0.815 ± 0.41 |
| R57K | -0.375 ± 0.16 |
| R57P | -0.236 ± 0.093 |
| L58Y | -0.286 ± 0.043 |
| L58C | -0.247 ± 0.058 |
| L58F | -0.084 ± 0.039 |
| L58M | -0.043 ± 0.065 |
| L58K | -0.07 ± 0.046 |
| L58G | 0.015 ± 0.034 |
| L58E | 0.091 ± 0.058 |
| L58D | -0.039 ± 0.047 |
| L58T | -0.087 ± 0.058 |
| L58V | -0.046 ± 0.039 |
| L58I | -0.132 ± 0.047 |
| L58N | -0.028 ± 0.046 |
| L58H | -0.018 ± 0.062 |
| L58S | -0.011 ± 0.034 |
| L58A | 0.013 ± 0.05 |
| L58R | 0.007 ± 0.04 |
| L58Q | 0.046 ± 0.12 |
| L58W | -0.247 ± 0.055 |
